Test: soluble on expression in E. coli; label from the status in PepcDB or PDB records

| Sequence | soluble on expression in E. coli |
| --- | --- |
| MADEATRRVVSEIPVLKTNAGPRDRELWVQRLKEEYQSLIRYVENNKNADNDWFRLESNKEGTRWFGKCWYIHDLLKYEFDIEFDIPITYPTTAPEIAVPELDGKTAKMYRGGKICLTDHFKPLWARNVPKFGLAHLMALGLGPWLAVEIPDLIQKGVIQHKEKCNQLEHHHHHH | soluble |
| MIINKPSRVRPDGRGKVTGELKYMTDLSFPGMLYGKVLRSAYPHAEIVSVCTIKAEKMEGVQAVVTHKDVPGLNRFGIVIPDQPVLCEDRVRYVGDAIAAVAAETEEIAEAALELIQVEYKELEVMDSPEKALRPNAQRLHEDGNILHRAFFSNGDVEEGFQASDTVFEETYELPRQMHTYMETEGGVAVPEDDGGFTMYAGTQHGYKDRFQLARIFDIPEEKIRIVSSPMGGSFGGKDELNIQPYAALLALKSGRPVKIHQTRKESVRSGIKRHPMKITIKTGADHSGNLLAHDVKIVADTGAYATLGPAVLDFSVEHAAGPYRIPNIRTEGISVFTNNGVAGEFRGFGGNQITFALETHLDRLSGMLGIDPLELRRKNIRKPHDLGPLEHRIAPTDGAAQVLNAISKSPILKKTSRNCGYLQRGTGAAITMHGGGLGFGRMDAAGGRLSLSSEGKITASFGFEECGQGILAAIEQIVMEELGCAAEDISIVIGDTAKVPKSGSSTASRGTSMVWHAIQRLKKPFLAQLKKRAAEWSGCSAENLIPGAAGLRDKNTKALVVTYKELAEKGPLAEETAFDFPTTPDPVVGGHFLYSFGAAAVEVEVDLLTGDVKLIDCEHAIAAGPVVSPQGYRGQIEGGAAMALGYTLMEEAKMTDGRYAAENLDHYLIPGIKDVPDMKLIAIEDLMKGDVYGPRGVGEIGTIAITPAIVKAVHDAVGCWINKLPISREELLEAIDRKGLKQWT | not soluble |
| GSRRASVGSMSKKPPNRPGITFEIGARLEALDYLQKWYPSRIEKIDYEEGKMLVHFERWSHRYDEWIYWDSNRLRPLERPALR | soluble |
| MTSRPSSDQTWQPIDGRVALIAPASAIATDVLEATLRQLEVHGVDYHLGRHVEARYRYLAGTVEQRLEDLHNAFDMPDITAVWCLRGGYGCGQLLPGLDWGRLQAASPRPLIGFSDISVLLSAFHRHGLPAIHGPVATGLGLSPLSAPREQQERLASLASVSRLLAGIDHELPVQHLGGHKQRVEGALIGGNLTALACMAGTLGGLHAPAGSILVLEDVGEPYYRLERSLWQLLESIDARQLGAICLGSFTDCPRKEVAHSLERIFGEYAAAIEVPLYHHLPSGHGAQNRAWPYGKTAVLEGNRLRW | soluble |
| MSDNYKFFRHDNCEYFPCHKVKDKETFNCLFCYCPLYFLENCGGNKSDFNGVKDCSNCLIPHSKNGYDYIINKIREVNKEKRAKNNLTLEHHHHHH | soluble |
| TETTSFLITKFSPDQQNLIFQGDGYTTKEKLTLTKAVKNTVGRALYSSPIHIWDRETGNVANFVTSFTFVINAPNSYNVADGFTFFIAPVDTKPQTGGGYLGVFNSAEYDKTTQTVAVEFDTFYNAAWDPSNRDRHIGIDVNSIKSVNTKSWKLQNGEEANVVIAFNAATNVLTVSLTYPN | soluble |
| MKKFTLEEFLDLLKKYNVEEIEGVKIEGDLEIEFEGSSIDLSAIAPLYSMLSEFGNFLYHANMALGYLQRLSAALGIPTPFAAQPQLAPAAPAAPAEVPAVEELKIPAELVRAKFEPYKEEYPGKIEEVVLGATKADGGTREYTVTLGGERSLAFYTFDAPQPHLPAIAIDVFDRRPMLAKAVRMHYEDVLDNPAEWARKCVKKFGADLVTLHLISTDPLLDDTPASEAVKVLEDVLQAVKCPIIVGGSGNKEKDPEVLEKAAEVAEGERIMLASATLDMDWERIANAAKKYGHVVLSWTQMDINNQKTLNRYLLKRVEMPRDSIVMDPTTAALGYGLDYAFTNMERIRISGLKGDTDLNFPISSGTTNAWGAREAWMVDSPIEEDTPWGPRELRGPIWEIITGLTLSLAGVDLFMMMHPVAVAVLKEVFNTLGGKVSGGVADPGEWIFMEV | not soluble |
| MPTDDKARPRKTLTIKKTAPAAPSADDEAPRRKRIGARARLVAQMERAKEQQHAPRRKAPRQDAAHQDDAPRRRPRAPREAEIFPVYAPCPQGIEEALAAEMQALGFEDARAGRAGCAFSTDWAGVQRANLYSRLATRILVQVAQADIGHEDDILDLARSVPWERWFGPDETLRVDTSAIKSPVKSLQYCNLRAKDGICDRLREVEGARPDIDTVRPDARVHLFLSGTTATLYLDTSGESLFKRGWRLDKGEAPLRENLAAGMLALAGWDPAEPLLDPFCGSGTILIEAAWIALGVPPGISRPFGFERLRNHDARRWQDLKADARTRIQTQLETPLFGYDLDPRAIQYAQANAERAWLTADTIRFEVGDARHLAAPADHGWIVTNPPYGERMETEDDSEMWRDWAACLKRQFAGWQVHVISSDMTLPQRLRLKPLRRVPLHNGALDCRLFGFELVPASYRKPA | not soluble |
| MKKKIIKKKSAAAPASKIPDDFEMPMARVADEDDVAEDYKVVDMSEIAAPIIEFEMPNLVEKSPEEFKNSEVTGEASREVSVKTPKKVTKRVRKSSKTDKTDQIPLTAEKLNNELVALRATCLTAKNQLMSRIVRQKKQLESKKSQKVDGKSKEERDRKIARLVEEILGLKTFDKDSVAKFAALNTKSLAELKINGKTEVAERLMYKLVCQSIIVEKIQSIREKYTEWNKTAAFFMQRLGQQYANKPEKKSKKSTEKKELNIENLEDLNNEDEDSENEKEEEIEENEEDYDQSDIEMLDSDEEEAGEEAAKNRRNLLLGLIGVQEDKNRPSLAPKKRKLVEEEDEEVETVKNQKKMKQIFEKELKSKEVKNPKKSNKSTKKPTKSAPIVKKVEEKKVEENEVSDDESDQKTLVMKVDLSKGGKIAKAQKFSTTAPKSAKIVAPVSEDENDDDESSSFFLPKSGVVAPRKIIPKKPSENVEKVDKRFQKGTQKKSEAVVEKKKGSSKSAVSGEMHPSWIASQLKKKELASAKPCGKKITFGDDEEE | not soluble |
| LKRLFWPVLLVVLGFGTYEGAQRLLPYADRPIARINVQGDLSYISQQAVQQRIAPYVASSFFKIDLAAMRTELEQMPWIAHAEVRRVWPDQVVIRLEEQLPVARWGDEALLNNQGQAFTPRELSNYEHLPQLFGPQRAQQQVMQQYQVLSQMLRPMGFSIVRLELRERGSWFLTTGAGSAGPGIELLLGRDHLVEKMRRFIAIYDKTLKEQITNIARVDLRYSNGLAVGWREQAAATTDKPAVAKN | not soluble |
| GRSLGKLGMRYGKKRVHIAKRNLELAFPEKTPEEVQHIVEENFKNTGMALIETGITWFWPTWRFKTLIVEKDIHALKEKGAEGK | not soluble |
| MGSDKIHHHHHHLPLLLPVGSQILRNKMRSKPRILIALSSVGLGGAERQGLMFAEYLKCKHSFDVLVSTFGGEGKVSLLCKETGIQHVNIAYPLLGHRWEVWWKLISTALTLRKIKPDCIVSYCMPANAACAAVWRLTGARACIWGQRDAGLQKELLTPIPLAPRLATCFVSNSPHGAAFLENQLAIPRHKISTIPNAVKLNVAQLSRTEWRSRLKISHDAMIVTMVSNLSFRKDHETLLKAWRIGLDNQLFPQNTKLVLCGRDDSNAPVIRKLAGKLHLDNHIRFAGATDDVAGILNASDIAAFSFISEGLPNVVIESMAAGLPVVATDIPGVRAAIGSCDDNILVPPKDPAAMAHGIAKILQDPALRSRAAAANITQATSTFAPDVVFSAFAKLILSNI | not soluble |
| MSLTPRFIDLHTHTTASDGSDSPADLVRKATEAGLAAVAVTDHDTVAGLDEAVAMGHETGIEVVRGCELGVRSEYGEIHILGLWLPEKPETLLDAMKELRRHRNERNERIVDNLRTLGMDITYEEVRALSGGVSVGRPHIALALLRHGYIRTPQEAFDRFIGPGAPAYAPKKVFSPAEGVRLLASCGATVAIAHPMLLRCPEEWLDDTVADLKVAGLDAIEAYHSEHSHKDERRCVDIADRHGLVLTGGSDYHGKAKPAISLGRGRGGLRVTTHVLDNLKRHRRERGLEGHHHHHH | soluble |
| MGSSHHHHHHSSGLVPRGSHMGGGRSTETSSSSGGDGGATKKKVVVGTDAAFAPFEYMQKGKIVGFDVDLLDAVMKAAGLDYELKNIGWDPLFASLQSKEVDMGISGITITDERKQSYDFSDPYFEATQVILVKQGSPVKNALDLKGKTIGVQNATTGQEAAEKLFGKGPHIKKFETTVVAIMELLNGGVDAVITDNAVANEYVKNNPNKKLQVIEDPKNFASEYYGMIFPKNSELKAKVDEALKNVINSGKYTEIYKKWFGKEPKLDRLKQ | soluble |
| MSLTLGIAFVGSGFSAKFHLRGLVGVRNVEVKGVYSRNLNSSKEFAMLSEQLGLGKPKVYSDISKMLSDKEINAVWLTVPNDVHLEYTKLIAEEVSQGRSNIHGITIEKPLARNVKEAKEMIRLVEKAGLLHGYLENQIFMPSVVRAREAIWEIGSRNSGRPYLARAAEEHSGPHNSWFWRPTISGGGALIDMTCHSLEATRFLLTDPAKTKSSLKPKTVYAETKTLKWNKKEYAQYLKEKYNVDFLKEPAEDYALTIVTYEDDLGNSVLAETRTSWNYVGPGLRLSVEVLGPEYSVNINTLQSELSVFFSRNIKLPQSEAFVEKQNADQGLMPIILDEAVVYGYQGEDRHMVESFISRKMPFENWYDGLLIVQLMMHAYLSAENGRKISFDPQKVEDFIPKVARGLYSAEGHHHHHH | soluble |
| MIHCDPFSINCFWENVIKFLQYDHSMFKIAITSVPARVDVSDLDRSLAYFLSDIGYIPKINPSTDMNSIKNSVYFRLFKECFLMNGERFWTPEELMSYLGTSRSTLYRHLNKLKYMDLLEEVKDGKIKKYRIRSGDILKAWSWVEINVKMAMDNYRSNVEHIVDLIRSNSNSNLRPLEHHHHHH | not soluble |
| MSLELKITDFKVFVAQANFEWAFVRIYSKDLYGTGEAGPAPGLKGMESEFIQLLIGEDAFKVNRIAEKLRYATLYSGTTVYHLISAINIALYDLIGKYLNVPIYKLLGGDKTEIPVYVDAHGGKGLEAINALHLPVNLPWIKEAEVETNRLITTNNPVHGRLSMEKWNEDYSPEAYAKRALKMKNEGYKAMKFDLDVPTPYIDLRRVRNGDLSLKDIDYMVDIVKAVRESVGDEVEIMFDLHWRYNLNTAIRICKALEPYRLRWLEDPMPAIMAVSNYDELKLLTSQCSVPIETGENLYTVYQFKDLLNTGVRVWAPDIVKAGGITEGRRIAELAAMYDIEYSPHNIASPIGTMAHAHVGSIANTFGFVEFHGHDVPFWNEIVKPKRKIIEDGVIKLTDDPGLGIDLDDEVMRKYWPTYELEGHHHHHH | not soluble |
